Test results as given in patent US20200199231A1.

Biological target: human CD20 (human) (UniProt P11836)
Assay: flow cytometry on Daudi cells (CD20-positive, CD3-negative); PE-conjugated goat anti-human IgG F(ab')2; geomean (PE)

human CD20 (human), sequence (P11836 whole entry): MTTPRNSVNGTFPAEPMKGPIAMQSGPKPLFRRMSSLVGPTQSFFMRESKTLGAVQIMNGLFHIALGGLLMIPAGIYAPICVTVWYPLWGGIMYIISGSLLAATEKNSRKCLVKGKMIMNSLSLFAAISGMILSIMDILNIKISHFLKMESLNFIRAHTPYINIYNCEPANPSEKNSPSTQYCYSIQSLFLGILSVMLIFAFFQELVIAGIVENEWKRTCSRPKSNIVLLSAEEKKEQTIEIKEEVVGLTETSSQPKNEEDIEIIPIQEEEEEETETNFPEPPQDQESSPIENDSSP

Substance | EC50 (read off the curve) [µg/mL]
IgG1-GA101 (antibody) | 0.6
IgG1-RTX (antibody) | 0.7
